Measured values from patent publication US12552866B2, “Internalizing binding molecules targeting receptors involved in cell proliferation or in cell differentiation” (LinXis B.V., priority 2019, dated 2026).

Columns and labels:
hIGF2R-ECD = target: T1, hIGF2R-ECD (Homo sapiens, UniProt P11717); experiment: Binding assay / titration ELISA on recombinant hIGF2R-ECD; conditions: construct conjugated to Alexa Fluor 647, direct read out; KD+SEM, n=2; read-out: calculated affinity (KD)
T1 construct: recombinant human extracellular domain of IGF2R (hIGF2R-ECD)
Protocol: The 15 unique hIGF2R binders (Example 1.1, FIG. 2) were produced and purified as described in examples 2 and 3. The apparent affinities were determined with binding assays on hIGF2R-ECD. Briefly, three-fold serial VHH dilutions, starting from 1 μM, were added onto hIGF2R-ECD coated plates. After 2 hours of incubation, plates were washed and bound VHH was detected using a VHH-specific IgG antibody, followed by an IRD800CW-conjugated IgG-specific antibody. […] VHH 13F11 was also produced with a C-terminal free cysteine and conjugated using maleimide chemistry to Alexa Fluor 647 (13F11-A647 in FIG. 8A, conjugation method as described in example 9.2). A titration ELISA (direct read out at 647 nm) with this construct was carried out on hIGF2R-ECD to determine whether the affinity was affected after site directed conjugation (FIG. 8B). The KD and Bmax were calculated in Graphpad (version 8.3), using one-site specific binding analysis (FIG. 8C).
Based on their high affinity and binding to non-overlapping receptor epitopes, VHHs 13F11 and 13E8 were selected for the design of biparatopic and bivalent VHH constructs. Two VHHs were fused with a flexible linker, consisting of three Gly-Gly-Gly-Gly-Ser repeats (FIG. 8A). The sequences were codon optimized for expression in E. coli and obtained as synthesized DNA fragments from GeneArt. The DNA fragments encoding VHHs were cloned into a vector pET28-based vector introducing a C-terminal free cysteine for site-directed conjugation and His6 tag for IMAC purification (FIG. 8A). The constructs were produced and purified as described in example 3. The constructs were conjugated to Alexa Fluor 647 (conjugation method as described in example 9.2) and titration ELISAs on recombinant hIGF2R-ECD (as described in example 4.1) were performed to determine the KD and Bmax (calculated in Graphpad (version 8.3), using one-site specific binding analysis) (FIG. 8C).
Next, 13F11-13E8 was genetically re-engineered to include an in vivo half-life extender in the form of an albumin binding domain (ABD) as described by Johansson et al (Structure, specificity, and mode of interaction for bacterial albumin-binding modules, J. Biol. Chem. 2002 (277): 8114-8120) and subsequently produced and purified as described in Example 3. Subsequently, 13F11-13E8-ABD was conjugated to IRDye800CW (F11E8-ABD-IRD800, conjugation method as described in example 9.2) and the binding affinities of the biparatopic VHH as well as the ABD unit was determined. […] The binding affinity (KD) of F11-E8-ABD-IRD800 to rat serum albumin (RSA) was 30 nM and to mouse serum albumin (MSA) and human serum albumin (HSA) the binding affinity was approximately 200 nM.

[1] = In vivo pharmacokinetics in healthy Sprague-Dawley rats (serum ELISA); set-up: species or system rat; conditions: rat, i.v., approximately 3 mg/kg; LOD approximately 20 nM
Protocol: The in vivo pharmacokinetic properties of 13F11-13E8-ABD was compared to 13F11-13E8 without the ABD moiety in healthy Sprague-Dawley rats. In brief, rats were dosed intravenously with approximately 3 mg/kg body weight and blood samples were taken at different time points and the concentration of the VHH constructs were determined using an ELISA on immobilized hIGF2R-ECD.

[2] = tested on: A549 cells (IGF2R positive); experiment: Internalization in A549 cells (acid wash, confocal); type: cell-based, human; conditions: 25 nM VHH conjugated to Alexa Fluor 647
Protocol: (§1) To assess if monovalent 13F11 and biparatopic 13F11-13E8 are internalized in the hIGF2R expressing cells, A549 cells (FIG. 16A) and NIH 3T3 2.2 cells transiently transfected with hIGF2R (FIG. 16B) were incubated with 25 nM VHH conjugated to Alexa Fluor 647 (conjugation method as described in example 9.2). A Mouse anti-IGF2R mAb was included to detect IGF2R expression on the hIGF2R transfected cells NIH 3T3 2.2 (FIG. 16B, right column), the mAb was detected with a goat anti-mouse mAb conjugated to Alexa Fluor 555. Additionally, mock transfected NIH 3T3 2.2 cells were incubated with 13F11 and 13F11-13E8 (FIG. 16C). […]
(§2) (FIG. 10D). […] The rate of internalization (endocytic rate constant, ke) of biparatopic constructs 13F11-13E8 and 13E8-13F11 was determined with a kinetic internalization assay on SCC-VII cells transfected with hIGF2R and rIGF2R. […] Subsequently, cells were washed with cold PBS and the non-internalized VHH construct (bound fraction) was separated from the internalized construct (internalized fraction) using an acid-wash, as described above, after which the fluorescence of both fractions were measured. […] Internalization was also observed in rIGF2R expressing SCC cells as a clear increase in fluorescence over time can be shown in FIG. 17 (ke around 0.7 min-1).

[3] = tested on: NIH 3T3 2.2 cells transiently transfected with hIGF2R; experiment: Internalization in NIH 3T3 2.2 cells transiently transfected with hIGF2R; type: cell-based, human; conditions: 25 nM VHH conjugated to Alexa Fluor 647
Protocol: as §1, §2

[4] = tested on: mock transfected NIH 3T3 2.2 cells; experiment: Internalization in mock transfected NIH 3T3 2.2 cells; type: cell-based; conditions: 25 nM VHH conjugated to Alexa Fluor 647
Protocol: as §1, §2

[5] = tested on: hIGF2R expressing SCC cells; experiment: Kinetic internalization assay on hIGF2R expressing SCC cells; type: cell-based, human; conditions: 10 nM IRD800CW conjugate, 37° C., up to 12 minutes
Protocol: (§3) (FIG. 10D). […] The differences in internalization are possibly related to the differences in IGF2R expression levels on the target cells. […] Summarizing, biparatopic 13F11-13E8 clearly internalizes in cells expressing hIGF2R on the cell surface. The rate of internalization (endocytic rate constant, ke) of biparatopic constructs 13F11-13E8 and 13E8-13F11 was determined with a kinetic internalization assay on SCC-VII cells transfected with hIGF2R and rIGF2R. Briefly, 10 nM of IRD800CW conjugated 13F11-13E8 or 13E8-13F11 (conjugation method as described in example 9.2) was added to hIGF2R expressing SCC cells or rIGF2R expressing SCC cells and incubated at 37° C. for different time points up to 12 minutes. Internalization was then purposely halted by putting the cells on ice. Subsequently, cells were washed with cold PBS and the non-internalized VHH construct (bound fraction) was separated from the internalized construct (internalized fraction) using an acid-wash, as described above, after which the fluorescence of both fractions were measured. Both constructs internalize with similar endocytic rate constants (ke around 1.5 min-1) in the hIGF2R expressing SCC cells (FIG. 17). Internalization was also observed in rIGF2R expressing SCC cells as a clear increase in fluorescence over time can be shown in FIG. 17 (ke around 0.7 min-1).

[6] = tested on: rIGF2R expressing SCC cells; experiment: Kinetic internalization assay on rIGF2R expressing SCC cells; type: cell-based, rat; conditions: 10 nM IRD800CW conjugate, 37° C., up to 12 minutes
Protocol: as §3

activated HSCs LX-2 = experiment: Internalization in living LX-2 cells with pHrodo red conjugates; type: cell-based, human; conditions: 50 nM pHrodo-red conjugate
From the text: Internalization of monovalent 13F11 and biparatopics 13F11-13E8 and 13E8-13F11 in living activated HSCs LX-2 was visualized using the pHrodo pH dependent probe (ThermoFisher Scientific). The pH probe becomes more fluorescent as the pH of the surroundings decreases accordingly. Endosomes and lysosomes have a pH maintained at 6.5 and 4.5, respectively, compared to cytoplasmic pH of 7.0, and thus internalization of a VHH-pHrodo construct can be visualized when it internalizes via the endosomal pathway. LX-2 cells were incubated at 37° C. for 2 hours with 50 nM of pHrodo-red conjugated 13F11, 13F11-13E8 and 13E8-13F11 (conjugation method as described in example 9.2). Images were taken at 5 min. intervals using a wide-field PEXScope microscope (Nikon) with a mCherry filter and 40× oil objective. […] Additionally, both internalized 13F11-13E8 and 13E8-13F11 accumulate into perinuclear compartments (endosomes/lysosomes).

B1: 13F11-13E8: biparatopic anti-IGF2R VHH construct, 13F11 and 13E8 fused with (Gly-Gly-Gly-Gly-Ser)3 linker (protein)
chain: EVQLVESGGRLVQPGDSLRLSCAASGRTFSDNAMGWFRQAPGKERRFVAGISWAGGSTYYSDSVKGRFTISRDNAKNTVYLQMNSLKPEDTAVYYCAAGLRAWVQRMPKDYNYWGQGTQVTVSSGGGGSGGGGSGGGGSEVQLVESGGGLVQAGGSLRLSCAASRSISPMGWYRQAPGKQRELVAIMPSSGPPIYADSVQGRFTISRDNAKNTVYLQMNSLKPEDTAVYYCNVGGGYWGQGTQVTVSS
modifications: left off: small tags and cut ends
notes: biparatopic anti-IGF2R VHH construct, 13F11 and 13E8 fused with (Gly-Gly-Gly-Gly-Ser)3 linker
Kd (hIGF2R-ECD): 2.5 ± 1.87 nM | clearance from circulation [1]: could not be detected anymore within two hours after injection | internalization in A549 cells [2]: clearly internalized | internalization in hIGF2R transfected NIH 3T3 2.2 cells [3]: did internalise | internalization in mock transfected NIH 3T3 2.2 cells [4]: did not internalize | endocytic rate constant (ke) [5]: around 1.5 min-1 | endocytic rate constant (ke) [6]: around 0.7 min-1 | intracellular fluorescence compared to the monovalent construct (activated HSCs LX-2; 37° C., from 15 min. onwards): more pronounced increase in intracellular fluorescence | rate of internalization compared to 13E8-13F11 (activated HSCs LX-2; 40-min. time period): higher rate of internalization
